Tested on: Escherichia coli TOP10
Test: shrunken log2 fold change of peptide-encoding DNA abundance (4.5 h post-induction vs induction); higher = less antimicrobial activity (less host growth inhibition)
Conditions: time post-induction: 4.5 h; library: site-saturation at positions 5, 18, 19, 20
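Also: peptides expressed intracellularly from a pBAD plasmid library in pooled LB shake-flask culture, induced with 0.3% L-arabinose, DNA abundance read by NGS, three biological replicates, DESeq2 with apeglm shrinkage.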

Sequence	shrunken log2 fold change
RRIRIRPPRLPRPRPRPFLGPRP	0.00585
RRIRRRPPRLPRPRPRPLGDPRP	0.682
RRIRQRPPRLPRPRPRPTTLPRP	-0.196
RRIRCRPPRLPRPRPRPSDGPRP	-0.0084
RRIRARPPRLPRPRPRPCHTPRP	0.0762
RRIRCRPPRLPRPRPRPCSRPRP	-0.0999
RRIRTRPPRLPRPRPRPCEHPRP	0.00673
RRIRDRPPRLPRPRPRPAWWPRP	0.388
RRIRGRPPRLPRPRPRPCDFPRP	0.102
RRIRIRPPRLPRPRPRPGDKPRP	-0.218
RRIRERPPRLPRPRPRPEDSPRP	0.00699
RRIRCRPPRLPRPRPRPDISPRP	0.0772
RRIRERPPRLPRPRPRPHQKPRP	-0.0694
RRIRGRPPRLPRPRPRPNFTPRP	0.298
RRIRCRPPRLPRPRPRPQSQPRP	0.131
RRIRMRPPRLPRPRPRPWMKPRP	-0.234
RRIRRRPPRLPRPRPRPLIAPRP	0.294
RRIRVRPPRLPRPRPRPLFGPRP	-0.104
RRIRCRPPRLPRPRPRPVNLPRP	2.47
RRIRCRPPRLPRPRPRPDSSPRP	-0.026
RRIRVRPPRLPRPRPRPSIHPRP	-0.755
RRIRTRPPRLPRPRPRPDDLPRP	0.0162
RRIRWRPPRLPRPRPRPYPDPRP	-0.106
RRIRLRPPRLPRPRPRPMQRPRP	0.0784
RRIRPRPPRLPRPRPRPEPHPRP	0.298

Sequence	shrunken log2 fold change
RRIRFRPPRLPRPRPRPSFMPRP	-0.393
RRIRMRPPRLPRPRPRPRAQPRP	0.232
RRIRVRPPRLPRPRPRPRLSPRP	0.0321
RRIRDRPPRLPRPRPRPTLEPRP	1.06
RRIRFRPPRLPRPRPRPQGPPRP	0.0563
RRIRNRPPRLPRPRPRPAELPRP	-0.0198
RRIRKRPPRLPRPRPRPHVYPRP	0.22
RRIRTRPPRLPRPRPRPVEMPRP	-0.162
RRIRNRPPRLPRPRPRPAAGPRP	0.698
RRIRERPPRLPRPRPRPKTIPRP	-0.232
RRIRTRPPRLPRPRPRPNCMPRP	-0.16
RRIRARPPRLPRPRPRPCKGPRP	-0.0784
RRIRVRPPRLPRPRPRPIWMPRP	-0.0796
RRIRIRPPRLPRPRPRPGAFPRP	-0.294
RRIRCRPPRLPRPRPRPHMHPRP	-0.527
RRIRWRPPRLPRPRPRPIMHPRP	-0.174
RRIRYRPPRLPRPRPRPNFLPRP	-0.623
RRIRGRPPRLPRPRPRPLAMPRP	0.94
RRIRMRPPRLPRPRPRPPEYPRP	-0.035
RRIRPRPPRLPRPRPRPQPSPRP	0.641
RRIRVRPPRLPRPRPRPSVTPRP	-0.222
RRIRDRPPRLPRPRPRPPNGPRP	0.0163
RRIRFRPPRLPRPRPRPELNPRP	0.164
RRIRMRPPRLPRPRPRPQDEPRP	-0.0393
RRIRNRPPRLPRPRPRPDGMPRP	0.0319

Sequence	shrunken log2 fold change
RRIRERPPRLPRPRPRPKMHPRP	-0.134
RRIRSRPPRLPRPRPRPCSKPRP	-0.234
RRIRSRPPRLPRPRPRPFRHPRP	-0.0389
RRIRRRPPRLPRPRPRPHHAPRP	-0.0424
RRIRNRPPRLPRPRPRPQLVPRP	-0.0147
RRIRPRPPRLPRPRPRPYAQPRP	-0.478
RRIRIRPPRLPRPRPRPRSPPRP	0.0527
RRIRQRPPRLPRPRPRPRVQPRP	0.527
RRIRIRPPRLPRPRPRPRMEPRP	-0.00396
RRIRQRPPRLPRPRPRPVNQPRP	-0.0686
RRIRHRPPRLPRPRPRPSHPPRP	0.0558
RRIRRRPPRLPRPRPRPIVKPRP	-0.0348
RRIRYRPPRLPRPRPRPPCSPRP	-0.957
RRIRGRPPRLPRPRPRPSVRPRP	0.529
RRIRIRPPRLPRPRPRPVRCPRP	0.201
RRIRARPPRLPRPRPRPDARPRP	0.355
RRIRHRPPRLPRPRPRPSNYPRP	-0.28
RRIRIRPPRLPRPRPRPHPHPRP	-0.496
RRIRVRPPRLPRPRPRPWHIPRP	-0.127
RRIRDRPPRLPRPRPRPDEHPRP	0.0279
RRIRERPPRLPRPRPRPQQLPRP	-0.178
RRIRWRPPRLPRPRPRPDLYPRP	0.0586
RRIRARPPRLPRPRPRPGHCPRP	0.0986
RRIRPRPPRLPRPRPRPWERPRP	0.0097
RRIRDRPPRLPRPRPRPTRTPRP	0.246

Sequence	shrunken log2 fold change
RRIRMRPPRLPRPRPRPYRVPRP	0.111
RRIRCRPPRLPRPRPRPAKQPRP	-0.0271
RRIRKRPPRLPRPRPRPNLGPRP	0.207
RRIRLRPPRLPRPRPRPNWEPRP	-0.111
RRIRNRPPRLPRPRPRPDDDPRP	-0.153
RRIRMRPPRLPRPRPRPRLEPRP	0.113
RRIRVRPPRLPRPRPRPDDSPRP	0.13
RRIRIRPPRLPRPRPRPRKNPRP	-0.133
RRIRVRPPRLPRPRPRPGVMPRP	-0.261
RRIRVRPPRLPRPRPRPMRMPRP	-0.00559
RRIRYRPPRLPRPRPRPYAVPRP	-0.85
RRIRFRPPRLPRPRPRPEMSPRP	0.000731
RRIRHRPPRLPRPRPRPSWHPRP	-0.759
RRIRNRPPRLPRPRPRPSTDPRP	-0.0474
RRIRDRPPRLPRPRPRPLWPPRP	0.662
RRIRWRPPRLPRPRPRPLNTPRP	0.0456
RRIRCRPPRLPRPRPRPMWDPRP	-0.317
RRIRNRPPRLPRPRPRPTRCPRP	0.15
RRIRGRPPRLPRPRPRPTKKPRP	0.689
RRIRQRPPRLPRPRPRPSMGPRP	-0.163
RRIRERPPRLPRPRPRPLSNPRP	0.0169
RRIRERPPRLPRPRPRPVQGPRP	0.166
RRIRIRPPRLPRPRPRPEIFPRP	-0.0951
RRIRSRPPRLPRPRPRPRIYPRP	-0.517
RRIRARPPRLPRPRPRPGQAPRP	-0.0216

Sequence	shrunken log2 fold change
RRIRSRPPRLPRPRPRPQMFPRP	-0.0871
RRIRHRPPRLPRPRPRPPRAPRP	0.667
RRIRVRPPRLPRPRPRPSVKPRP	-0.155
RRIRCRPPRLPRPRPRPDNIPRP	-0.0703
RRIRVRPPRLPRPRPRPDHCPRP	-0.146
RRIRPRPPRLPRPRPRPKAVPRP	0.0993
RRIRGRPPRLPRPRPRPHLWPRP	0.942
RRIRERPPRLPRPRPRPASMPRP	0.0524
RRIRGRPPRLPRPRPRPIQDPRP	0.391
RRIRFRPPRLPRPRPRPSCDPRP	-0.314
RRIRARPPRLPRPRPRPDKHPRP	-0.0889
RRIRPRPPRLPRPRPRPAVNPRP	-0.103
RRIRDRPPRLPRPRPRPQYAPRP	-0.101
RRIRTRPPRLPRPRPRPPGWPRP	0.758
RRIRWRPPRLPRPRPRPQTKPRP	0.434
RRIRHRPPRLPRPRPRPSSAPRP	-0.0336
RRIRVRPPRLPRPRPRPQFAPRP	0.133
RRIRMRPPRLPRPRPRPFNQPRP	-0.0903
RRIRYRPPRLPRPRPRPDKEPRP	-0.478
RRIRMRPPRLPRPRPRPIEIPRP	-0.0115
RRIRERPPRLPRPRPRPNESPRP	0.0842
RRIRNRPPRLPRPRPRPLLMPRP	-0.421
RRIRARPPRLPRPRPRPQGSPRP	0.4
RRIRFRPPRLPRPRPRPFAWPRP	-0.0558
RRIRYRPPRLPRPRPRPWLSPRP	-0.205

Source: the supplement of paper PMC9112550, “Optimization of the antimicrobial peptide Bac7 by deep mutational scanning” (BMC Biology, 2022)
